Biological target: SARS-CoV-2 NTD-RBD-foldon (SARS-CoV-2 (strain Wuhan-1/2020) | bacteriophage T4) (UniProt P0DTC2)
Experiment: SEC-MALS

SARS-CoV-2 NTD-RBD-foldon (from UniProt P0DTC2 14-541)
stoichiometry N: 3
